Laboratory results taken from patent US8497072.

How the values were obtained:
[1] = target: Aβ(1-40) monomer (human); experiment: dot blot, 10 pmol antigen on nitrocellulose, 0.2 µg/ml antibody, densitometry
[2] = target: Aβ1-42 monomer (dot blot) (human); experiment: as above
[3] = target: Aβ(1-42) fibrils (human) (UniProt P05067); experiment: co-sedimentation with Aβ(1-42) fibrils, SDS-PAGE, densitometry of heavy chain in pellet and supernatant
[4] = target: endogenous Aβ(1-42) in human CSF (human); experiment: IP from CSF of MCI patients (n=4), ratio of recovered Aβ42 to Aβ40
endogenous Aβ(1-42) in human CSF (human), sequence (peptide, as listed by the source): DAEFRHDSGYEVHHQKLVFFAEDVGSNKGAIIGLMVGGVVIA

[5] = target: endogenous Aβ(1-42) in human CSF (human); experiment: IP from CSF of AD patients (n=2), ratio of recovered Aβ42 to Aβ40
[6] = target: endogenous Aβ(1-42) in human CSF (human); experiment: IP from AD patient CSF with antibody on anti-mouse IgG Dynabeads, 8 M urea-PAGE and Western blot (82E1)
[7] = target: endogenous Aβ(1-40) in human CSF (human); experiment: as above
endogenous Aβ(1-40) in human CSF (human), sequence (peptide, as listed by the source): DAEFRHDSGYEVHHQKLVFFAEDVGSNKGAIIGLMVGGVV

[8] = target: endogenous Aβ(1-42) in human CSF (human); experiment: IP from CSF of MCI patients (n=4) with antibody-Sepharose, Aβ42 sandwich ELISA of eluate
[9] = target: endogenous Aβ(1-42) in human CSF (human); experiment: IP from AD patient CSF, urea-PAGE Western blot, share of Aβ42 in recovered Aβ40+42
[10] = target: endogenous Aβ(1-42) in human CSF (human); experiment: IP from CSF of AD patients (n=2) with antibody-Sepharose, Aβ42 sandwich ELISA of eluate
[11] = target: endogenous Aβ(1-40) in human CSF (human); experiment: IP from CSF of MCI patients (n=4) with antibody-Sepharose, Aβ40 sandwich ELISA of eluate
[12] = target: endogenous Aβ(1-40) in human CSF (human); experiment: IP from CSF of AD patients (n=2) with antibody-Sepharose, Aβ40 sandwich ELISA of eluate

Row | Reflective Density (RD) [10 pmol] [1] [RD] | Reflective Density (RD) [10 pmol] [2] [RD] | Fibril bound Ab fraction [3] [%] | Aβ42/40 [4] [%] | Aβ42/40 [5] [%] | Aβ42 urea-PAGE after immunoprecipitation [6] [pg/mL] | Aβ40 urea-PAGE after immunoprecipitation [7] [pg/mL] | Aβ(1-42) recovered after immunoprecipitation [8] | Ratio Aβ42/Aβ40+42 × 100% [9] [%] | Aβ(1-42) recovered after immunoprecipitation [10] | Aβ(1-40) recovered after immunoprecipitation [11] | Aβ(1-40) recovered after immunoprecipitation [12] | Substance
1 | 0.7 | 3.1 |  |  |  |  |  |  |  |  |  |  | mMAb 4G8 (Signet Inc. Cat# 9220) (antibody)
2 |  |  | 98 | 17.4 | 20.6 | 202 | 4390 | 2040 | 4.4 | 1450 | 8280 | 5610 | mMAb 6E10 (Signet Inc. Cat.# 9320) (antibody)
